According to article PMC9317851, “Genomic Characterization of Bacillus safensis Isolated from Mine Tailings in Peru and Evaluation of Its Cyanide-Degrading Enzyme CynD” (Applied and Environmental Microbiology, 2022):

Tests used:
[1] = target: the molecule itself; assay: SEC-MALS; pH 10; 100 mM NaCl, 20 mM CAPS; 100-μL injection of 3.47 mg/mL (89.36 μM) CynD; Superdex 200 increase 10/300 GL; size of the oligomers
[2] = target: the molecule itself; assay: SEC-MALS; pH 8; 100 mM NaCl, 20 mM Tris-HCl; 100-μL injection of 3.47 mg/mL (89.36 μM) CynD; Superdex 200 increase 10/300 GL; size of the oligomers
[3] = target: the molecule itself; assay: SEC-MALS; pH 9; 100 mM NaCl, 20 mM Tris-HCl; 100-μL injection of 3.47 mg/mL (89.36 μM) CynD; Superdex 200 increase 10/300 GL; size of the oligomers

B1: Cyanide dihydratase CynD from Bacillus safensis PER-URP-08 (CynD_(PER-URP-08)), recombinant with C-terminal 6xHis tag (enzyme, UniProt P0DXY3 1-330, looked up)
chain: MTSIYPKFRAAAVQAAPVYLNLEATVEKSCELIDEAASNGAKLVAFPEAFLPGYPWFAFIGHPEYTRKFYHELYKNAVEIPSLAIQKISEAAKRNETYVCISCSEKDGGSLYLAQLWFNPNGDLIGKHRKMRASVAERLIWGDGSGSMMPVFQTDIGNLGGLMCWEHQVPLDLMAMNAQNEQVHVASWPGYFDDEISSRYYAIATQTFVLMTSSIYTEEMKEMICLTQEQRDYFETFKSGHTCIYGPDGEPISDMVPAETEGIAYAEIDVERVIDYKYYIDPAGHYSNQSLSMNFNQQPTPVVKQLYHQKNEVFTYEDIQYQHGILEEKV
notes: Cyanide dihydratase CynD of Bacillus safensis PER-URP-08, locus EGI07_08135; monomer 38.5 kDa; The forward primer carries the NdeI site CATATG followed by a further atg, so an added N-terminal Met may be present; also called recombinant CynD; EGI07_08135; source: E. coli BL21(DE3)/pLysS, purified (Ni-NTA, size exclusion chromatography); not shown: 6xHis, C-terminal, kept
- stoichiometry N [1]: 3 to 5 mer
- stoichiometry N [2]: 24 to 48 mer
- stoichiometry N [3]: 4 to 6 mer
